Biological target: T1, recombinant murine ENTPD2 (residues 29-462) used in crystallography studies (mouse, UniProt O55026 29-462, N-linked glycosylation observed at Asn129 and Asn378)
T1 construct: also called murine ENTPD2 ectodomain; mENTPD2
T1 sequence: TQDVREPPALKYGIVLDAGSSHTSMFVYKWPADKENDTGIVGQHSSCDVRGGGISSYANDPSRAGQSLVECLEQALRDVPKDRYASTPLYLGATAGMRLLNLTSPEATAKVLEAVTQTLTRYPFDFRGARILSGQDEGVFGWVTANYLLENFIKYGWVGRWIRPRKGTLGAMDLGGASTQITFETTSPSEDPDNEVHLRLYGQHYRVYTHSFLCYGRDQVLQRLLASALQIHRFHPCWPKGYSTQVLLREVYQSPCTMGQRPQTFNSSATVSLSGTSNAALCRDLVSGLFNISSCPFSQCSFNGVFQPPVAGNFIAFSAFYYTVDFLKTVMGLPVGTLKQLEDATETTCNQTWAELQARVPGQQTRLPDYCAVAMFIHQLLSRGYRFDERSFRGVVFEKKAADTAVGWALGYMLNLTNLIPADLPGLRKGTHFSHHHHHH
Assay: X-ray crystal structure of the complex
Experimental: Structure determination by molecular replacement was performed using the previously determined human ENTPD2 coordinates and Fab coordinates from PDB code 3QRG.

buried solvent-accessible surface: ~16300 Å2
B1: ANTI-mouse ENTPD2 FAB24 (Fab, V domains shown)
VH: QVQLVQSGAELKQPGQSVKISCKASGYTFTHYGMNWVKQAPGQGLKWMGWINTDTGNPTYADDFKGRFVFSLDTSVSTAYLQISNLKNEDTATYYCVRYGTLYSGYGFFFDSWGQGTLVTVSS
VL: DIMMTQSPSSLSVSAGEKATITCKSSQSLFNSNTNKNYLNWYLQKPGQSPKLLFYYASTRHTGVPDRFIGSGSGTDFTLTITSVQDEDLADYYCQQWYSYPWTFGPGTKLEIKR
modifications: N-terminal residue observed and modeled as pyroglutamate in the crystal structure
notes: Fab with the variable regions of mAb13; human CH1 and kappa constant regions; also called anti-murine ENTPD2 Fab MAB13

Source: patent publication US20220348651A1 (Novartis, published 2022)
